{"source": "paper PMC2120552", "biological_target": "synthetic beta1 peptide, identical in sequence to the complete cytoplasmic domain of the beta1 integrin subunit", "test": "pull-down", "note": "Where “and” joins values, the source holds several entries; their conditions need not be identical. Identical values can stand only once."}
{"substance": "alpha-actinin (from UniProt P05094 1-893) (natural protein)", "values": [{"measurement": "percent of the protein in the lysate bound", "result": "10% and > 10%"}]}
